The values below come from PMC3998512 (DNA repair, 2013).

The target of one test is GST tagged human Cdk1 (human, UniProt P06493 1-297). Put plainly: far-Western, overlay or dot blot.
A further test has as its target His tagged human PCNA (human, UniProt P12004 1-261). Put plainly: far-Western, overlay or dot blot.

Chain of GST tagged human Cdk1 (P06493 whole entry): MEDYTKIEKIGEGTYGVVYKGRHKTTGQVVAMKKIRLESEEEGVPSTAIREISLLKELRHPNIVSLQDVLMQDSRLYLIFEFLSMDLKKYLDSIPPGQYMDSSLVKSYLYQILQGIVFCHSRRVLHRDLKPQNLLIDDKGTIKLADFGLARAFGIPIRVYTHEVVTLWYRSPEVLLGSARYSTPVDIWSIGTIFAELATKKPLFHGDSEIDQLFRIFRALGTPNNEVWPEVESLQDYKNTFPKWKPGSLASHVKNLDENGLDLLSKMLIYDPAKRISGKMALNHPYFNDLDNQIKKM
Chain of His tagged human PCNA (P12004 whole entry): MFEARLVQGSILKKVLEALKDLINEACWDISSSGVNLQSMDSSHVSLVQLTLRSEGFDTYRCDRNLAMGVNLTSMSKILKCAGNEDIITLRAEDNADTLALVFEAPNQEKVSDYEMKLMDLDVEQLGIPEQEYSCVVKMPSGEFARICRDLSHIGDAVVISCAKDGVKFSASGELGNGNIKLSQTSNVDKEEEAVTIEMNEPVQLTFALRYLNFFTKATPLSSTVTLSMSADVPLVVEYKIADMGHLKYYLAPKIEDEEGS

B1: His tagged human Δ16mtSSB (mtSSB lacking 16 N-terminal amino acids) (natural protein, UniProt Q04837 17-148, looked up)
chain: ESETTTSLVLERSLNRVHLLGRVGQDPVLRQVEGKNPVTIFSLATNEMWRSGDSEVYQLGDVSQKTTWHRISVFRPGLRDVAYQYVKKGSRIYLEGKIDYGEYMDKNNVRRQATTIIADNIIFLSDQTKEKE
Turning to B1, the binding result with GST tagged human Cdk1 is “binds”.

B2: human recombinant Δ80AAG (AAG lacking the first 80 amino acids) (domain or fragment, UniProt P29372 81-298, looked up)
chain: GHLTRLGLEFFDQPAVPLARAFLGQVLVRRLPNGTELRGRIVETEAYLGPEDEAAHSRGGRQTPRNRGMFMKPGTLYVYIIYGMYFCMNISSQGDGACVLLRALEPLEGLETMRQLRSTLRKGTASRVLKDRELCSGPSKLCQALAINKSFDQRDLAQDEAVWLERGPLEPSEPAVVAAARVGVGHAGEWARKPLRFYVRGSPWVSVVDRVAEQDTQA
With B2, the binding result with His tagged human PCNA is “binds”.
